T1: human factor XIIa (human, UniProt P00748 20-615, biotinylated with Biotin Ester (Zymed); sites not stated)
T1 chain: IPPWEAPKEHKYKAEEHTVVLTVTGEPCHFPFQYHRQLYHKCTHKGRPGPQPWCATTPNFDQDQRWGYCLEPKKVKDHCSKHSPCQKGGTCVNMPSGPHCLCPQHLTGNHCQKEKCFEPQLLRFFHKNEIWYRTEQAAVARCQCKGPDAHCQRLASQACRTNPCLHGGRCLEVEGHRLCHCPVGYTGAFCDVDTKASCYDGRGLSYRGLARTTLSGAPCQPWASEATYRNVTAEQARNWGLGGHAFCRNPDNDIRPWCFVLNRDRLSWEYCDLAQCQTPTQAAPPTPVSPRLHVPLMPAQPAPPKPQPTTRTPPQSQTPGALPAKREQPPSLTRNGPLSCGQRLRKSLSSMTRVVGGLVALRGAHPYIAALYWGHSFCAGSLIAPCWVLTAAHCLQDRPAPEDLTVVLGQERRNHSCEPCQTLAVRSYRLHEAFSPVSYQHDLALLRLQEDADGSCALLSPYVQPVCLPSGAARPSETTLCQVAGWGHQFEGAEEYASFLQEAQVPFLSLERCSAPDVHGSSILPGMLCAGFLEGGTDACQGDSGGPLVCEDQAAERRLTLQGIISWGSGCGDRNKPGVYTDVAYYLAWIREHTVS

T2: human factor Xa (human, UniProt P00742 41-179; P00742 235-488)
T2 chain 1: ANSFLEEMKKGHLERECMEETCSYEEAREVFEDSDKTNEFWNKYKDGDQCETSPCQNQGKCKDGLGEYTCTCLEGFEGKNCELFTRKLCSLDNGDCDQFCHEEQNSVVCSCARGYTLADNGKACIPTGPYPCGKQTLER
T2 chain 2: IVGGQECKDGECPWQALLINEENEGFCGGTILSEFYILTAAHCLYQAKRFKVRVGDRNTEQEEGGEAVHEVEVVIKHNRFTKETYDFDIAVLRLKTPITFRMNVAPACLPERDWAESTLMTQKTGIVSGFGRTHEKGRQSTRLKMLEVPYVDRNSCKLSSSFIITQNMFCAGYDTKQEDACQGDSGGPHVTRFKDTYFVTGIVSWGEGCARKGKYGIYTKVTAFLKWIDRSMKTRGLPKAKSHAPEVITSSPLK

B1: TW6154 (protein)
chain: EVVREVCSEQAETGPCRAMISRWYFDVTEGKCAPFFYGGCLGNRNNFDTEEYCMAVCGSAI
B2: TW6209 (protein)
chain: B1 chain with R22H, L41G
B3: TW6211 (protein)
chain: B1 chain with R22K, L41G
B4: TW6147 (protein)
chain: B1 chain with L41A
B5: TW6138 (protein)
chain: B1 chain with L41K
B6: AL301 (protein)
chain: B1 chain with F36L, L41G
B7: TW6157 (protein)
chain: B1 chain with L41S
B8: TW6142 (protein)
chain: B1 chain with F36V, L41G
B9: TW118 (protein)
chain: EVCSEQAETGPCRAMISRWYFDVTEGKCAPFFYGGCRGNRNNFDTEEYCMAVCGSAI
B10: AL302 (protein)
chain: B1 chain with F36G, L41G
B11: DD128 (protein)
chain: B1 chain with R22L, L41G
B12: TW6155 (protein)
chain: B1 chain with L41M
B13: TW6179 (protein)
chain: B1 chain with M19G, L41G
B14: BG031 (protein)
chain: B1 chain with T13V, L41G
B15: DD112 (protein)
chain: B1 chain with M19V, L41G
B16: BG032 (protein)
chain: B1 chain with T13S, L41G
B17: TW6208 (protein)
chain: B1 chain with A18G, L41G

A word on the Ki: it is the dissociation constant of the complex between target and ligand, obtained from inhibition or displacement.

Positions count from the first letter of the chain named.

T3 sequence (P03952 20-638): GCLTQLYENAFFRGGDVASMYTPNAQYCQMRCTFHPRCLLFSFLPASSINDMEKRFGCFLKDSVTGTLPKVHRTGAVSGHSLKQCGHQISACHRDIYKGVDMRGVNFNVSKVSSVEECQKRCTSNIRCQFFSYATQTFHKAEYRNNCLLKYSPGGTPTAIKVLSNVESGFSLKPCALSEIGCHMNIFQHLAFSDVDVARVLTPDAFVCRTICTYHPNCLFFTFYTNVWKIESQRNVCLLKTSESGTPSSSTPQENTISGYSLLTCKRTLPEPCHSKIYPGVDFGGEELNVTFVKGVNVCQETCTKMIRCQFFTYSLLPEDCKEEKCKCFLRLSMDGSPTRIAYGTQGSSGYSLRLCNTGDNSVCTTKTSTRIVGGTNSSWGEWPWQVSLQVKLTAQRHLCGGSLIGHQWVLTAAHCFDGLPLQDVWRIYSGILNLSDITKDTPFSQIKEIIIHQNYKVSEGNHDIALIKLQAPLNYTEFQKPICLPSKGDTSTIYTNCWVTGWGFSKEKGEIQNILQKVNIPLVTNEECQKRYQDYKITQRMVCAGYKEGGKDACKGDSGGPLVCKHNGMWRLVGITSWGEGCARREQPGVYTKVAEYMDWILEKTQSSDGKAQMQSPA

The first experiment has as its target T1, human factor XIIa. The experiment in a line: enzyme inhibition.
As for B1, the affinity, expressed as Ki, was 915 nM.

B2 registered a Ki of 184 nM.

On to B3, for which the affinity corresponds to a Ki of 402 nM.

The molecule B4 showed a Ki of 1090 nM. Against the preceding molecule, the Ki is about 2.7-fold higher.

The molecule B5 registered a Ki of 921 nM.

Consider B6, for which the affinity corresponds to a Ki of 1560 nM.

Turning to B7, the affinity corresponds to a Ki of 511 nM.

In turn, B8 registered a Ki of 7970 nM.

For B9, the affinity corresponds to a Ki of 13000 nM.

Another experiment concerns the target T3, human plasma kallikrein (human, UniProt P03952 20-638). The experiment in a line: enzyme inhibition.
For B1, the Ki amounted to 11 nM.

In turn, B2 yielded an inhibition constant (Ki) of 81 nM. Against the preceding molecule, the Ki is about 7.4-fold higher.

In turn, B3 had a Ki of 184 nM.

Regarding B10, the affinity, expressed as Ki, was 39 nM.

As for B11, the Ki was found to be 44 nM.

Regarding B4, the Ki was 35 nM.

The molecule B5 showed a Ki of 18 nM.

Consider B6, for which affinity was put at a Ki of 216 nM.

Molecule B12 showed an inhibition constant Ki of 11 nM.

For the molecule B7, the Ki is 40 nM.

In turn, B8 had a Ki of 18 nM.

For B9, the Ki was 6 nM.

A further experiment has as its target T2, human factor Xa. The experiment in a line: enzyme inhibition.
The molecule B1 had a Ki of 39 nM.

In the case of B2, affinity was put at a Ki of 613 nM.

Take B10: the Ki came out at 316 nM.

B11: the affinity corresponds to a Ki of 37 nM.

Molecule B4 displayed a Ki of 179 nM. This Ki lies about 4.8-fold higher than the previous one.

Consider B5, for which the affinity, expressed as Ki, was 309 nM. Compared with the last molecule, the Ki is about 1.7-fold higher.

For the molecule B12, the affinity corresponds to a Ki of 27 nM.

With B7, the affinity, expressed as Ki, was 168 nM.

The molecule B8 returned a Ki of 225 nM.

B9: the Ki was determined as 68 nM.

A further experiment concerns the target T1, human factor XIIa. The experiment can be described thus: enzyme inhibition. The source holds these as a separate data set.
For B13, the Ki is 368 nM.

The molecule B14 displayed an inhibition constant Ki of 498 nM.

As for B15, affinity was put at a Ki of 998 nM.

B16 displayed a Ki of 731 nM.

On to B17, for which the Ki stood at 369 nM.

For a further experiment, the target named is T3, human plasma kallikrein. The experiment in a line: enzyme inhibition. The source holds these as a separate data set.
Consider B13, for which affinity was put at a Ki of 78 nM. In other words, the double-digit nanomolar range.

Molecule B14 returned a Ki of 34 nM.

For B15, the inhibition constant (Ki) stood at 6.8 nM.

For the molecule B16, the Ki was determined as 49 nM.

For the origin of these results see patent publication US6906033 (dated 2005).
